Assay results published in the domain aggregation screens of Martell et al. (2025).

Experiment: soluble fraction after stress (log2 fold change); higher = more stays soluble; pooled small domains, quantitative proteomics
Settings: stress: 75 degC
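Further: 20 min heating vs room temperature control held 20 min.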

Point of comparison: “HMLEEIDYPEEQLQLLFAWSRDHVQSTPPGLPVVDDHVWHILVRGYGATDQRTEAFALLASYAGFP”, “soluble fraction (log2)” value 0.135. Against it:
- HMKYTEEIFNILSRGGFISANSVSSTVKRYYDALEEDFTEYYDYYKGIGFYLEAGNGYYLFTR — lower, -3.41
- HMKYTVKSPLPGVIMSVLVKVGDTVKASDTVISLEAMKMENAIHAGRDGKVTSIDVNVGDSVLEGHTLVTI — lower, -0.594
- HMLAAGTPLTVVTESSNLNIRQEPSTEAAVVGKAAKGEIVTLVEQTSGEWWKVSTKDGEEGYAYSRYL — higher, 0.678
- HMLAAGTSLTVDTESSNLNIRQEPSTEGVILGKAAKGEVVTLVEQSSDEWWKIKTKDGEEGYAYARYLR — within 0.2 log units, 0.175
- HMLADRANMAPAALRQIMTAIDGGNVTPKQIESATGMAHATVARALRKMLDDGLIANDGKGRYTVLT — lower, -0.212
- HMLADTNIHTIALKHRLANEVVEQVRPFLPETATIRAYDNMLILKSDRATLANVEQLIKKLDT — within 0.2 log units, 0.0428
- HMLALVREQIERNVSNPTDEDIRKIRHDVMEVITRAGADAATVDIAIEIDSQKNILRAIATGATEL — lower, -0.0966
- HMLAMHVVESVGGAEQFTKLQNFAKTQNADYQKMWNDTMNSGNVLAIKTMLSGIQSDMIAVQ — lower, -0.276
- HMLAQDVIVKQDGGTILSKVLEIGTQEIAYKKWNSQDGPVYKIAKDQVLSVNYQNGEVDRFA — within 0.2 log units, -0.00975
- HMLAQISDEGAIGAVVARVLDAHPNEVARYHAGEEKVAKFLMGAAMRELRGKGDPAVVQRLLSEGLDARRV — within 0.2 log units, -0.00832
- HMLARPTANELVKEMQRRAKEQRTELPPDAARDLLERSGQDQFLLGNEVDKLAALSGYTTITREMVAQAGT — within 0.2 log units, 0.247
- HMLAVPADFAEKLQSLRSQLASDDLDASDAFGRLQPFIKALYPAQLEALRKAVDDFDFVEATRLIDQLPQ — lower, -0.376
- HMLAYQRTYEKILEDLRNDVYPVNSLLPPEPKLEEIYHVSRTTVRRAIAQLADEGYVKVKQGYGTVVLKN — lower, -2.02
- HMLDEPPVSQTLTTYDREHMALYLRLLDSARDGADWREAVQILFGLDPTRDPLRSRHVHDTHLARARWM — within 0.2 log units, -0.0384
- HMLDFGQEDSEAVSEIILVLGRYWMDFSHKKYPEAEGSALRHKGISHIFTVLKPYLTSATAQLIEQRLQQ — lower, -0.0669
- HMLDIQKKGENIAYIEGAGDVIPESLKQIGYHVVTIAPKDINAETLSRFDAVVVGIRAYNTVEDL — within 0.2 log units, 0.0708
- HMLDKIRTYIDNSFTGVNETKKVKELKDELFENLKEKYNDQIQDGKTEQEAYNSVISGIGDLSELIESVK — higher, ≥ 1.04
- HMLDKKKHLEQGRKIIEDQLAKYKIQPSFDTLKKLSAYYGLNNKEQLYAQVGMGFLELENLDEILQ — within 0.2 log units, 0.307
- HMLDLPVRTINGRQYYYYEVRNRETVYGLSKRLGVTREEIVRYNPSMADGLKRGAILYFPVDEFSDRI — lower, -2.84
- HMLDLSDFEVVRDLYLSEQIWNVGDLIIARSKKDDTYKAWEIIRKGTNYVTGIDESHKVEKIWLHDILI — lower, -1.15
- HMLDSPHDDLNRKIVQMLQNDGRLPYKDIAEVLSVSEGTVRNRVQRMRDAGMLNIVALIDPMAI — within 0.2 log units, -0.0197
- HMLDTPLTARELDVLYLMRQRMSAKEIAKQLGIATMTVNRHAANLYRKLGVNTRWDAVYRAEEVGILPP — lower, -1.45
- HMLDVNLIFSRPGFSLSAAFTLHAGGITVLRGDSGSGKTTLADLLSGAIAPQKGRILSDGDIWFDAASGIN — within 0.2 log units, 0.108
- HMLDYITLSPQELGKLLSAGNGDAAMVYLYMKATGDVTLKQAETQLGMTNQNLAWAESLLKRLGLMD — lower, -1.9
- HMLDYKSALQELLQAQRRSRPRYEVISTEGPDHERVFEVAVWLDNEELGRGKGRSKREAEHQAAQAALTQL — lower, -0.115
- HMLDYQLQVFKDTLEANRKHRGQKIVFIHGKGEGVLRRALIHALNYQYKKFTYQDASFREYGYGATQVTI — lower, -0.312
- HMLEIDPPVDEISVSRKAFYEAAGYKVNPYTHIPPRYRKEFEEHSFVVMSWPRELPEETYRKFDRYLRDV — within 0.2 log units, 0.0575
- HMLEIRGFTVLLSDRGIVGIIEEIIQNPGQDLLRILSPEKREILVPLHSDLITGINKKKKTITMNLPDGL — lower, -1.87
- HMLELTGEEEFVIRTLTRQGDLHINALVVETDIPINRMISLLFELEMKGVVKALVGGVYHLLG — lower, -2.45
- HMLELTVSDKMARLMAWRNRRRVNLSDQELHRIAAAPKQSPESILKMLPGFLQDSVPEIWAELTGGRP — lower, -1.24
- HMLENSLDHIEGIGPKTKDTLLTYFKSVSKIKSANPSILAELIGAAKTKILLAAFEKEKTTS — lower, -0.7
- HMLENYEGFKQKILKLTGIDLSSYKERQMRRRIDSLIHRNNYDDYDEYFKALTQNSNLYDEFINYLTI — lower, -0.823
- HMLEQEDMYGYQMIETLRERSEHSFDLKAGTLYPLLHALEQKGLITARDEASAAGRPRRYYHLTDAG — lower, -0.354
- HMLERPLFTPEQYGRFRGKEARIRLSNPVEGRKTLTGSIVEATEERIVVFVEEEEREVTVPFQWIKSGNL — lower, -0.544
- HMLESVMHSRIAEIISREGTAPAHMSMQEKIRVVHKLDADGILMMKGAVAEIADQLSVSVPTIYRYLNKPQ — lower, -2.49
- HMLETILQIGKDGVGENLVKQVNDALEARELIKGRVLDNNLELDARTAAQILAKATRSEVVQVIGTKFV — within 0.2 log units, -0.00194
- HMLEVTQTDVKMYTTSGTPVYAAPDLNSAIVVYLERFVNVTVTGITDNGFYRVNLNGDYYIPGPYLISSV — lower, -3.92
- HMLEYIEPRTAVQIHGIKAKPELNGKRGMVMGYAPERMRYRVRIDVGEGTGGKESEEVYLKPENVIAVK — within 0.2 log units, 0.0615
- HMLFKGDTREENVILEFLSKNGTTSSDAIIKQTGLSASEFNQAITMLELKGLALNNGGEKWSL — within 0.2 log units, 0.304
- HMLGDAVLRQVLETIPEDPAVDYLELRRNTGMTEADLDRVLADLENLGVINKKRTVEQVLYWRT — lower, -0.651
- HMLGDAWSMLILRDAHSGFSRFDQFRKSLGIAPTMLTKRLSVLVDEGLLEKRQYSEHPPREEYVLTQAGQD — lower, -0.0775
- HMLGERIRTLRKEIGMSVTELARRVKTSPSHISEIERGEKMPSLNLLVKIAKELKTSIDYLTGLVG — lower, -0.498
- HMLGNIERALEMLQEVAATMDPVDIRLLLSMAQVESVRGNTEAAVKLIDEALVIDPGNERIEQIRLRVL — lower, -0.482
- HMLGRPDMSPIPEGSRNNDLHAWGFGRLANHPDNKRQIEADFFERGRISGLGDAEIRASWNSILRQLGHQ — within 0.2 log units, 0.0693
- HMLGSVRTIRQVLDDGRLIVADGGGNPSVIRRSGALAHETFANGQRVIVDPSGRLALELLPD — within 0.2 log units, 0.171
- HMLGVLEYYNNGQKKSERTFKGGMQIYTEWYENGQMKAEERKWIDQLGSLKFLNLLSTEWDENGNEISRME — lower, -1.55
- HMLGYGEQEREAQKYLEMHTAFQADPSLQKMYLPENQYALISKVMEMTGIKNVKSYLTPPNEL — lower, -0.193
- HMLHVRSALMSELDGIEGIGEKRKRLLFDAFITRDAIAAATLEQLMAVKGMNRPSAEAVHKHFHG — lower, -0.985
- HMLIELKIPSEWAGKSLHTLNLRQNYNVNVIGFRDEKSGKLNTHFDPSKKLPDEGIILVVADNRTLEKF — lower, -0.7
- HMLIIDLPDFTNKKLSELQQWADANQITLKIVEKDVSSKPYDTILEQTPAKNKYEKIVKGSTMTVTVNIK — lower, -0.965
- HMLINFPNKLKRLRLANNLTQQELANILETTKQAVSSYESGKSTPSLNSLIKLSEHFNISLDSLVFD — within 0.2 log units, -0.038
- HMLINIKTNSAVNVRSGPGMGFEVVNTYPSGYILQAKEMQKDGGDNVWYKVKDGWLSANYTIDI — lower, -0.787
- HMLINPLDILRNFNLSLYDDSRDSASNKEIDEIFESIKTNNSHIFSTLKAYRIPLPIASLIIKKIIKITLE — lower, -0.891
- HMLISDENMLRDLVQAVLDENPKSVSDYKSGKTKAFGFLVGQTMKAVKGQADPMLVNKILTELLN — within 0.2 log units, 0.236
- HMLISYRVDALANEAGLSVDTIRYYQKLGILDPPKRTGRHSEYSPDHLERLIEIRRLADAGLTLSQISEI — lower, -2.55
- HMLKAKKIPVSDLEKFKGIVAEDVVSKAKALILPRGSNLSWLSNVAKKNLIAKLKAEGIEYISVYSS — lower, -0.47
- HMLKDGPIGAYADSVIRDIIEKMERFSKEHINVDMLKIHEKIMLIDEPIIRMALLDEFHRVSHDN — lower, -2.47
- HMLKEKETRALANFTNKFFGLDISEDLKPIALSELSKFKKTHKISNLEEFINSFQYDFQNEKILSLLDIFL — lower, -1.34
- HMLKFPIGTHVGKKKPSANLSLPNKHGVVIGHGERRNAKGAIMRFYIVETTHSSRPEEWAPGITYPL — lower, -2.72
- HMLKHEEIQEYIKEQINSGTWKPKAKLPSLRDMSELFSTSIGTVLTAYSALEKKHIIYSIPRSGYYVLG — lower, -4.48
- HMLKLEDIKKDAQVKGIVDGQIVRIVTVEPIGDHALTVYYKDHQGQFAERMLFRSDELNLELATA — lower, -0.244
- HMLKLSGEESQQLALRLREELARRRITRQGLADAAKISISTLEQVLAGRRTFTLATIVRLEEGLGIKLL — lower, -2.65
- HMLKNKSTGNINETKAILELALNHSHFKVFDNRDMTVTFKNLATQFTTMQRILVQMFFPLPAGVELIIE — higher, 0.428
- HMLKNYATPEQRAQLDMLKDKGIIGENELMQLGKYPSQDKASEVLENHADAVKMLDSDEISNRAEAIRSHD — within 0.2 log units, 0.173
- HMLKPQQTQRIYAMAARLGVLESGNKNDMLHTIVYRLTQKESIRSLNENEYKTVVSELAERLKL — lower, -1.12
- HMLKQLGRQEGRQEGAVDALRTVLALQIEQRFGPLDPTVQALIVAADIDALQRALSRVAVVSDLGAVFPP — lower, -0.875
- HMLKRLTVEFSAEMPKKMTSEQKEELASVLSEDPRPAYQNDENREYGLDYGEFSVKFKVKDGVLTVTSVTE — lower, -0.0802
- HMLLNLSPIETQVLRLIQQDKKVTYESIGKELTIGQTKVYKVLGHLKELNVIERIGGRTYGHWHILL — lower, -1.33
